The values that follow come from patent CN116724055A (CANTARGIA S R L, dated 2023).

The target in assay [1] is T1, 重组mfIL1RAP aa21-367 (食蟹猴 (Macaca fascicularis), UniProt A0A2K5X5J5 21-367).
T1 construct: also called 食蟹猴(cyno)IL1RAP
T1 sequence: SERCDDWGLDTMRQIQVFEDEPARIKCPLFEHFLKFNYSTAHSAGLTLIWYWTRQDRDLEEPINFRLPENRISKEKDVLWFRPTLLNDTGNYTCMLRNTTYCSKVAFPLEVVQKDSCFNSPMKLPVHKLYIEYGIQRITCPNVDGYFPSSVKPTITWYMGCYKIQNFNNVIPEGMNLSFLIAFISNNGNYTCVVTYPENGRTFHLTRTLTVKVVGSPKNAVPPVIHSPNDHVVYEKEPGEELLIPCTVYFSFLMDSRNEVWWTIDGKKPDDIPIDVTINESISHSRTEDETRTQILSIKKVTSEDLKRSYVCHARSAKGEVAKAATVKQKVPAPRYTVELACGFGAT
Nature of the assay: binding ELISA, coated mfIL1RAP aa21-367. (In general: An ELISA detects its analyte on a solid surface through an enzyme-linked reagent.)

The next assay addresses T2, 大鼠IL1RAP (褐家鼠 (Rattus norvegicus), UniProt Q63621 21-367, limits assumed).
T2 construct: also called rnIL1RAP
T2 sequence (looked up): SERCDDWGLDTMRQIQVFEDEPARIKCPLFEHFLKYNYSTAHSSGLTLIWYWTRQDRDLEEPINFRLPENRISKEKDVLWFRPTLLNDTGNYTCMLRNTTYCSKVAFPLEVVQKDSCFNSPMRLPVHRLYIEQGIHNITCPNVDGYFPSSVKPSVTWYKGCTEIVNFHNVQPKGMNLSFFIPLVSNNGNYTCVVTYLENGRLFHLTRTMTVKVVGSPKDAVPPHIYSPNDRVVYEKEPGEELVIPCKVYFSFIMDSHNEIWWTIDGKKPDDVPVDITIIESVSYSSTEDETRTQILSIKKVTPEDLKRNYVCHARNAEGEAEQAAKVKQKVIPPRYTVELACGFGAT
Nature of the assay: ELISA on coated IL1RAP orthologs.

The next assay deals with T3, 小鼠IL1RAP (小家鼠 (Mus musculus), UniProt Q61730 21-367, limits assumed).
T3 construct: also called mIL1RAP
T3 sequence (looked up): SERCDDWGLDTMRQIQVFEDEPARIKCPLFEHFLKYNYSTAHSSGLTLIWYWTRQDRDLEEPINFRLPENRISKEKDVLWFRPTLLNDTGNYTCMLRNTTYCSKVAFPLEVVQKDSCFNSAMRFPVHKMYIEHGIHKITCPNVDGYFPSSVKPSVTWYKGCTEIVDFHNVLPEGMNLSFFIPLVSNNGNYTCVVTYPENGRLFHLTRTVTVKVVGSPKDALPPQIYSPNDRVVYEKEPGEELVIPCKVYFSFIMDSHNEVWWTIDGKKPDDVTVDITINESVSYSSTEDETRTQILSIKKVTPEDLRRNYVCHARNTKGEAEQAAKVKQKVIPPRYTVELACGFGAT
Nature of the assay: ELISA on coated IL1RAP orthologs.

A further assay has as its target T4, 细胞膜上的人IL1RAP (人, UniProt Q9NPH3 21-570).
T4 sequence (looked up): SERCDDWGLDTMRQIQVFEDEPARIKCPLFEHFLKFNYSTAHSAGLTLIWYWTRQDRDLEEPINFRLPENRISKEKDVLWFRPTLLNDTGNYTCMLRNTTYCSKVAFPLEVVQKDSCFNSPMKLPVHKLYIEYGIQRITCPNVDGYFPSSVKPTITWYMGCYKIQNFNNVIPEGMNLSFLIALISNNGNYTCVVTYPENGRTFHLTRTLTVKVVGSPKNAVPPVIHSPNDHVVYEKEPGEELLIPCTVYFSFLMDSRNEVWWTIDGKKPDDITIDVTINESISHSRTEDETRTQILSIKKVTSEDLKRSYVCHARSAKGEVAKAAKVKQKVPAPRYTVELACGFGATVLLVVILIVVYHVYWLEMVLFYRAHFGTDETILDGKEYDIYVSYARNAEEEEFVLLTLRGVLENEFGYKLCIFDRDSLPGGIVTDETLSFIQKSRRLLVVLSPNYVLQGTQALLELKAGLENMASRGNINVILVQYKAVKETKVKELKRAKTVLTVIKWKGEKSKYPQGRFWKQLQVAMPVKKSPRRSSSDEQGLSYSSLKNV
Nature of the assay: cell-based or functional assay.

For assay [2], the target named is T1, 重组mfIL1RAP aa21-367. Nature of the assay: ELISA on coated IL1RAP orthologs.

B1: h48D2 VH5:VL5 (antibody, human IgG1, kappa, L234A L235A)
heavy: not shown
light: APVLTQSPATLEASVGDRVTITCQASESISTALAWYQQKPGQPPKLLIYKASTLPSGVPSRFSGSGSGTEFTLTISDLESDDAATYYCQQGFSSGNVHNAFGGGTEVVVKRTVAAPSVFIFPPSDEQLKSGTASVVCLLNNFYPREAKVQWKVDNALQSGNSQESVTEQDSKDSTYSLSSTLTLSKADYEKHKVYACEVTHQGLSSPVTKSFNRGEC
Take B1: the binding result with 重组mfIL1RAP aa21-367 [1] is given as “binds”.

B2: h48D2 VH5.GL:VL5.GL (antibody, human IgG1, kappa, L234A L235A)
heavy: not shown
light: DIQMTQSPSTLSASVGDRVTITCQASESISTALAWYQQKPGQPPKLLIYKASTLPSGVPSRFSGSGSGTEFTLTISDLESDDAATYYCQQGFSSGNVHNAFGGGTEVVVKRTVAAPSVFIFPPSDEQLKSGTASVVCLLNNFYPREAKVQWKVDNALQSGNSQESVTEQDSKDSTYSLSSTLTLSKADYEKHKVYACEVTHQGLSSPVTKSFNRGEC
notes: humanised and de-immunised variant
As to B2, the binding result with 大鼠IL1RAP and with 小鼠IL1RAP was “no binding” each time.

B3: 嵌合48D2 (antibody, V domains shown)
VH: QEQLEESGGGLVKPGGSLTLTCTVSGPSLSHFDITWVRQAPGSGLEWIGTISPGVSTYYASWAKSRSTITSNTNLNTVTLKMTSLTAADTATYFCARGGVGSSWKAFDLWGPGTLVTISS
VL: APVLTQTPASVEVAVGGTVTIKCQASESISTALAWYQQKPGQPPKLLIYKASTLPSGVSSRFKGSGSGTEFALTISDLECDDAATYYCQQGFSSGNVHNAFGGGTEVVVK
notes: chimeric rabbit/human IgG1; also called ch48D2; 48D2嵌合(ch)兔/人抗人IL1RAP
For B3, in the assay with 细胞膜上的人IL1RAP, the “IC50, inhibition of IL-1α signalling, HEK-Blue assay (SEAP, OD 620nM)” value came to 1.92 nM; the “IC50, inhibition of IL-1β signalling, HEK-Blue assay (SEAP, OD 620nM)” value turned out to be 0.7 nM; the “IC50, inhibition of IL-33 signalling, HEK-Blue assay (SEAP, OD 620nM)” value was determined as 2.92 nM; the “IC50, inhibition of IL-36α signalling, HEK-Blue assay (SEAP, OD 620nM)” value stood at 0.0083 nM. Moreover, in the assay with 细胞膜上的人IL1RAP, the “IC50, inhibition of IL-36β signalling, HEK-Blue assay (SEAP, OD 620nM)” value is 0.0081 nM and the “IC50, inhibition of IL-36γ signalling, HEK-Blue assay (SEAP, OD 620nM)” value turned out to be 0.0111 nM. The binding result in the assay with 大鼠IL1RAP was “no binding (tested: 4000ng/ml)”. Moreover, the binding result with 重组mfIL1RAP aa21-367 [2] was “binds”. Further, the binding result in the assay with 小鼠IL1RAP is recorded as “no binding (tested: 4000ng/ml)”.

B4: h48D2 VH5.GL:VL4 (antibody, human IgG1, kappa, L234A L235A, V domains shown)
VH: QEQLEESGGGLVKPGGTLSLTCTVSGPSLSHFDITWIRQPPGKGLEWIGTISPGVSTYYASWAKSRVTISVDTSLNTVSLKLSSVTAADTATYFCARGGVGSSWKAFDLWGPGTLVTISS
VL: ELVMTQSPSSVSASVGDRVTITCQASESISTALAWYQQKPGKAPKLLIYKASTLPSGVPSRFSGSGSGTDFTLTINSLQPEDFATYYCQQGFSSGNVHNAFGGGTKVEIKR
notes: also called 48D2变体VH5.GL:VL4; 人源化和去免疫化48D2变体VH5.GL:VL4
Regarding B4, the binding result in the assay with 大鼠IL1RAP and with 小鼠IL1RAP was “no binding” each time.

B5: h48D2 VH5:VL4 (antibody, human IgG1, kappa, L234A L235A, V domains shown)
VH: QEQLEESGGGLVKPGGTLSLTCTVSGPSLSHFDITWIRQAPGSGLEWIGTISPGVSTYYASWAKSRVTISVDTSLNTVSLKLSSVTAADTATYFCARGGVGSSWKAFDLWGPGTLVTISS
VL: ELVMTQSPSSVSASVGDRVTITCQASESISTALAWYQQKPGKAPKLLIYKASTLPSGVPSRFSGSGSGTDFTLTINSLQPEDFATYYCQQGFSSGNVHNAFGGGTKVEIKR
notes: also called 人源化48D2变体VH5:VL4
Take B5: in the assay with 重组mfIL1RAP aa21-367 [1], the binding result was “binds”.
